Key:
[1] = biological target: T1, FXIIa (Homo sapiens, UniProt P00748); conditions: aPTT-based test, FXII deficient plasma; cited from earlier work
T1 construct: The resulting α-FXIIa has a heavy chain of 50 kDa, connected to a light chain of 28 kDa
T1 sequence (P00748 20-372 limits assumed): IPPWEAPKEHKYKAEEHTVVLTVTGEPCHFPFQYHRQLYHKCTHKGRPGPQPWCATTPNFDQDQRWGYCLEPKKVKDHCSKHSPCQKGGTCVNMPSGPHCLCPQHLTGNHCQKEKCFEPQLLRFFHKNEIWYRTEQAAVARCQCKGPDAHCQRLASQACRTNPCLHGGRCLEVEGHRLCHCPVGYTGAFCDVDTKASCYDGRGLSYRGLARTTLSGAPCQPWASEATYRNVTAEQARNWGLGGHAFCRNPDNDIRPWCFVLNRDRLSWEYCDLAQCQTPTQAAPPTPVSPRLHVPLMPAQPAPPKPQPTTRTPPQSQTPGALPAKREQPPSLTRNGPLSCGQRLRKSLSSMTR
T1 sequence (P00748 373-615 limits assumed): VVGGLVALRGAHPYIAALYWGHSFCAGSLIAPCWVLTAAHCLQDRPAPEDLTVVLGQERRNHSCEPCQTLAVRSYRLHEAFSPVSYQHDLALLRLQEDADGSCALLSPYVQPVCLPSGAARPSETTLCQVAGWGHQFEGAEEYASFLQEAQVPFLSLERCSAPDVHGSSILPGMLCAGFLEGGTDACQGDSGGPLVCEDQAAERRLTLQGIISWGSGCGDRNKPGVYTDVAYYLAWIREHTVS

[2] = tested on: platelet accumulation and fibrin generation in Panc02 tumor-bearing mice; test: Laser injury in pancreatic cancer-bearing mice (cancer-associated thrombosis model); type: in vivo, mice (C57BL/6JRj); conditions: for fibrin generation compared to NaCl cancer mice / platelet accumulation compared to NaCl cancer mice: tumor-bearing mice
Procedure: Murine Panc02 cells (mouse pancreatic ductal adenocarcinoma cell line) were cultured to a 80% confluence in RPMI-1640 medium (Life Technologies) supplemented with 10% FCS (PAA), 1000 U/mL penicillin (Life Technologies), 100 μg/mL streptomycin (Life Technologies) and 0.1% fungizone (Life Technologies) at 37° C. in a humidified atmosphere with 5% CO2. Once in the exponential growth phase, cells were washed three times with PBS and briefly exposed to non-enzymatic cell dissociation buffer (Life
Technologies) to dislodge the cells. The cells were carefully washed three times, resuspended in PBS, and diluted to the desired concentration.
Five-week-old C57BL/6 mice were injected subcutaneously in the right flank with a tumor cell suspension (10^6 cells in 100 μL of PBS). When the tumor became palpable (0.2 cm), measurements in two dimensions were performed with a caliper, and the volume of each tumor was calculated according to the formula for the volume of an ellipsoid: π/6×a(b)^2, where a is the largest diameter and b the smallest diameter of the tumor.
Intravital video-microscopy of the cremaster muscle microcirculation was done as previously described (Falati et al., 2002) and as described hereinabove (see Example 1).
Vessel wall injury was induced with a Micropoint Laser System (Photonics Instruments) as described hereinabove (see Example 1).
Platelet and fibrin accumulation after injury were monitored and detected as indicated hereinabove (see Example 1).
Tumor-bearing mice were attributed to the Ir-CPI-treated group (Ir-CPI cancer) or to the control group (NaCl cancer). Moreover, cancer-free mice treated with NaCl (NaCl cancer-free) were also used as negative control. All mice were submitted to laser injuries in arterioles of the cremaster muscle to trigger thrombosis. Ir-CPI treated mice received either a low or a high dose of the investigative product.
Platelet accumulation and fibrin generation on the injured vessel walls were monitored using the following fluorescently labeled antibodies: DyLight649-labeled anti-GPIb antibody and Alexa Fluor 488-conjugated anti-fibrin antibody, respectively.

[3] = rodents; pharmacological therapeutic active dose; cited from earlier work
[4] = biological target: plasminogen (Homo sapiens, UniProt P00747); conditions: cited from earlier work
Sequence of plasminogen (P00747 20-810 limits assumed, species assumed): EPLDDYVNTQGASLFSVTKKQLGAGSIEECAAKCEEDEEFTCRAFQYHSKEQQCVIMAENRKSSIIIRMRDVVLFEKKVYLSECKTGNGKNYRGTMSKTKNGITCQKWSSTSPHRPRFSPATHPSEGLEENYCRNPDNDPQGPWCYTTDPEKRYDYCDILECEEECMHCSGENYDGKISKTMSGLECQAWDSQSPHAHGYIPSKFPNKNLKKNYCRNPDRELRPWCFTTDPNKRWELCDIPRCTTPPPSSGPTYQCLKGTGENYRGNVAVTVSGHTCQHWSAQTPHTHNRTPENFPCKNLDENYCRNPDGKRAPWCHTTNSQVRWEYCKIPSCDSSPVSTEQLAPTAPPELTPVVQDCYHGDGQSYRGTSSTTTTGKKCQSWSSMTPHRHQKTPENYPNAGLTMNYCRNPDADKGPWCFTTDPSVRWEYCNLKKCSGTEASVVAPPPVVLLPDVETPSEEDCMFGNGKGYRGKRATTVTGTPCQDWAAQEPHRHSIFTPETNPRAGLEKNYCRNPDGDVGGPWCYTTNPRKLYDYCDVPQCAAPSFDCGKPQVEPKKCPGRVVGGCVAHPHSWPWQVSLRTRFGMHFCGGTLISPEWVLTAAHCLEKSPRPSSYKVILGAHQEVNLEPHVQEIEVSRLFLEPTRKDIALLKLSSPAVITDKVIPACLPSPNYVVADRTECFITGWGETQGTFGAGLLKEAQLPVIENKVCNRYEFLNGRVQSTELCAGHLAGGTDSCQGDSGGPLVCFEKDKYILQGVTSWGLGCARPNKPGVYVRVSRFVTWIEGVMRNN

[5] = biological target: thrombin (Homo sapiens, UniProt P00734); conditions: cited from earlier work
[6] = tested on: human neutrophils; test: Apoptosis/necrosis assay (Annexin V / Propidium Iodide); type: cell-based; conditions: recombinant Ir-CPI 15.3 μg/mL (2 μM); 1 h incubation; 4 donors
Procedure: The effect of recombinant Ir-CPI on apoptosis/necrosis of human neutrophils was assessed. For this purpose, freshly isolated neutrophils from 4 donors were pre-treated for 1 h with recombinant Ir-CPI at 15.3 μg/mL and then incubated with Annexin V-FITC, with Propidium Iodide (PI) and with anti-human CD66b-PE antibody for cell identification. As negative control, neutrophils were only incubated with Annexin V-PI and CD66b for cell identification.
Polymorphonuclear neutrophils (PMNs) were isolated with StraightFrom® Whole Blood CD15 MicroBeads kits from Miltenyi Biotech. Briefly, after erythrocytes lysis, the blood cells were incubated in the presence of CD15 microbeads. Blood cells were washed with separation buffer and centrifuged at 300 g for 10 min at room temperature. The pellets containing magnetically labeled cells were resuspended in separation buffer and applied to the equilibrated whole blood column placed on the QuadroMACS. After extensive washing, the column was removed from the magnetic separator, and labeled cells were eluted using whole blood elution buffer. Finally, the PMNs were centrifuged at 300 g for 10 min and resuspended in Hank's buffer with calcium and magnesium. […]
Apoptosis was detected by initially staining the cells with Annexin V and Propidium Iodide solution followed by flow cytometry analysis. […]

[7] = tested on: clot fibrinolysis; conditions: dose-dependent; in a lesser extend than aPTT; cited from earlier work
[8] = High dose: 20.5 mg/kg bolus + 3.7 mg/kg/h
[9] = Low dose: 10.3 mg/kg bolus + 1.9 mg/kg/h

B1: Ir-CPI: Ixodes ricinus salivary gland polypeptide, contact phase inhibitor, MW=7660 Da; sequence SEQ ID NO: 1 or SEQ ID NO: 2 (protein)
chain: ANHKGRGRPAKCKLPPDDGPCRARIPSYYFDRKTKTCKEFMYGGCEGNENNFENITTCQEECRAKKV
For B1, the FXIIa clotting activity [1] is listed as “inhibits”, the “fibrin generation compared to NaCl cancer mice” value [2, 8] is listed as “significant decrease” and the “platelet accumulation compared to NaCl cancer mice” value [2, 8] is listed as “significant decrease”. For the same molecule, the “integrated fluorescence intensity of platelet labeling (area under curve)” value ([2]; High dose, vs NaCl cancer-free mice (*p<0.05) and NaCl cancer mice (***p<0.001)) was “significantly lower”, the “fibrin generation compared to NaCl cancer mice” value [2, 9] was “significant decrease” and the “platelet accumulation compared to NaCl cancer mice” value [2, 9] was “significant decrease”. The bleeding [3] was “does not increase bleeding”, the binding to plasminogen [4] was “unable to bind” and the activity on thrombin [5] was “totally inactive”. The induction of apoptosis [6] was “did not induce apoptosis”, the “mean necrotic, dead, apoptotic, and live cells vs negative control” value [6] was “no statistical difference” and the clot fibrinolysis time [7] was “prolongs”.
